Test results: patent US20160032292, “Aptamer-Guided Gene Targeting” (Georgia Tech Research Corporation, published 2016)

How the values were obtained:
[1] = target: T1, I-SceI homing endonuclease (expressed in HEK-293 from pSce) (UniProt P03882 P03882:1-235); experiment: cell_activity; RFP+ over C.Red.40, flow cytometry
T1 sequence: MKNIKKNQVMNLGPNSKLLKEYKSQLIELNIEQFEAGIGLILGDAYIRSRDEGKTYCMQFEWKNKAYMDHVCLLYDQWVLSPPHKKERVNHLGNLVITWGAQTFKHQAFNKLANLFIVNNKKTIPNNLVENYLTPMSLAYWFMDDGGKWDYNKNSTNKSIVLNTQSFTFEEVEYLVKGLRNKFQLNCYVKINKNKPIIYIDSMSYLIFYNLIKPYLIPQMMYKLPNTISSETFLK
Experimental: (§1) Protocols, 1:1412-1428 (2006)) 24 h before transfection. For transfections in HEK-293 cells, the plasmid DNA was used in the amount of 0.5 μg for the expression vector, as well as 0.5 μg for the targeted vector, and the repairing DNA oligonucleotide used was 1 μg, unless otherwise indicated. For the transfections with I-SceI digested pLDSLm, 0.5 m g of the linearized pLDSLm vector was used with 1 m g of repairing DNA oligonucleotide. Digestion of the pLDSLm vector was done using I-SceI (New England Biolabs, Ipswich, Mass., USA). Ten micrograms of plasmid pLDSLm was digested using 15 U I-SceI, 250 ng bovine serum albumin (BSA), 10×I-SceI buffer (New England Biolabs, Ipswich, Mass., USA) and water to a final volume of 50 μl. Digestions were done overnight at 37° C. In all transfection experiments, the oligonucleotides and the plasmid were diluted in DMEM without supplements, and then PEI was added, the solution was vortexed and added to the wells 10-15 min later. Red fluorescent cells were visualized by fluorescent microscopy using a Zeiss Observer A1 microscope and an AxioCam MRm camera (Zeiss, Thornwood, N.Y., USA). […] For certain transfections, wells of 24-well plates were seeded with 150,000 cells (on the day before transfection) and 5-8 days after transfection individual fluorescent cells per well were counted using a fluorescence microscope just before flow cytometry analysis. […]

[2] = target: T1, I-SceI homing endonuclease (expressed …); experiment: cell_activity; RFP+ over C.Red.30, hand counts (4-fold by flow cytometry)
Experimental: as §1

[3] = target: T2, I-SceI homing endonuclease (expressed in yeast from GAL1-10 promoter) (UniProt P03882 P03882:1-235); experiment: cell_activity; gene correction over P1-r-P2.TRP5.40; I-SceI induced before transformation
T2 sequence: T1 sequence
Experimental: Briefly, 50 ml of yeast extract-peptone-lactic acid (YPLac) (lactic acid 2%), pH 5.8, or yeast extract-peptone-dextrose (YPD) liquid culture was inoculated about 24 h before transformation and incubated with vigorous shaking at 30° C. YPLac was used as a neutral carbon source so as not to induce I-SceI expression until plating the transformations to selective galactose-containing media. YPD was used to repress I-SceI expression until plating the transformations to selective glucose-containing media. Transformations were done with 1 nmol of total oligonucleotide DNA, with the exception of the PAGE-purified oligonucleotides in which transformations were done with 500 pmol of total oligonucleotide DNA. For the transformations testing to determine whether the aptamer was working in trans, two oligonucleotides were used, 500 pmol of each oligonucleotide, such that the combined total oligonucleotide DNA used was 1 nmol. Sequences of oligonucleotides used for repair can be found in Table 1. Cells from each transformation were diluted appropriately and plated to synthetic complete medium lacking the respective amino acid and containing 2% galactose for I-SceI induction, 2 or 0.2% galactose for HO induction or 2% glucose for I-SceI or HO repression. […] Viability after transformation was calculated by plating to glucose-containing synthetic complete medium. […]

B1: A7.Red.40 (ssDNA)
DNA: GCGGGCGCTGTTGACAGCGGTCAGGTGGATGGGATGTGACCCAGGACTCCTCCCTGCAGGACGGCTGCTTCATCTA
Binder B1 has an activity [1] of 6 fold.

B2: A7.Red.30 (ssDNA)
DNA: GCGGGCGCTGTTGACAGCGGTCAGGTGGATGGGATGCAGGACTCCTCCCTGCAGGACGGCTGCTTC
B2 gave an activity [2] of 16 fold.

B3: P1-A7-P2.TRP5.40 (ssDNA)
DNA: CTTCTGCCCGCCTCCTTCCGCGGGCGCTGTTGACAGCGGTCAGGTGGATGGGATGGACGAGATAGGCGGACACTGGTTTTGATGAAGCTGTCGCGGATCCCACATTCTGGGAAG
In the case of B3, the activity [3] is reported as 1.25 fold.
